# Test: yeast display, Sf9 membrane polyspecificity reagent, FACS + sequencing; frameworks hold sequencing errors
# In short: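 In a synthetic yeast display library (Saccharomyces cerevisiae BJ5465), nanobody expression was induced with galactose for 36–48 hours. FACS gates were set low and high (top ~1%) using anti-HA fluorescence for expression and streptavidin fluorescence for binding of the Sf9 membrane reagent. Each polyreactivity label is drawn from the gate of origin.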
row,Sequence,polyreactivity (PSR sort gate)
1,QVQLVESGGGLVQAGGSLRLSCAASGSIFDYYTMGWYRQAPGKERELVATIRSGDSTNYADSVKGRFTISRDNAKNTVYLQMNSLIPEDTAVYYCAADDGAYPTLYDYWGQGTQVTVST,low polyreactivity
2,QVQLVESGGGLVQAGGSLRLSCAASGSIFDYYTMGWYRQAPGKEREWVAAITRSGGRTYYADSVKGRFTISRDNAKNTVYLQMNSLKPEDTAVYYCATRAVSRFGNGPYDYWGQGTQVTVSS,high polyreactivity
3,QVQLVESGGGLVQAGGSLRLSCAASGSIFEEYALGSSRQAPGKERELVAAISRSGGSTYYADSVKGRFTISRDNAKNSVYLQMNSLKPEDTAVYYCAAEWVYGYRFGYWGQGTQVTVSS,low polyreactivity
4,QVQLVESGGGLVQAGGSLRLSCAASGSIFEGNGMGWYRPAPGKERELVAAITFRSGSTYYADSVKGRFTISRDNAKNTVYLQMNSLKPEDTAVYYCAADEYYQVSAYDYWGQGTQVTVSS,low polyreactivity
5,QVQLVESGGGLVQAGGSLRLSCAASGSIFEGNSMGWYRQAPGKERELVAAISRRGGRTYYADSVKGRFTISRDNAKKTVFLQMNSLKPEDTAVYYCNALYFRVGRYQTYSDKFDYWGQGTQVTVSS,high polyreactivity
6,QVQLVESGGGLVQAGGSLRLSCAASGSIFEGYAMGWYRQAPGKERELVAVITTSGGDTYYADSVKGRFTISRDNAKNTVYLQMNSLKPEDTAVYYCNAADAVSDYPDFHIYDYWGQGTQVTVSS,low polyreactivity
7,QVQLVESGGGLVQAGGSLRLSCAASGSIFEGYVMGWYRQAPGKERELVATISFSGGSTYYADSVKGRFTISRDNAKNTVYLQMNSLKPEDTAVYYCNALVYHTKGDYGYWGHGTQVTVSS,low polyreactivity
8,QVQLVESGGGLVQAGGSLRLSCAASGSIFEGYVMGWYRQAPGKERELVATISFSGGSTYYADSVKGRFTISRDNAKNTVYLQMTSLKPEDTAVYFCNALVYHTKGDYGYWGQGTQVTVSS,low polyreactivity
9,QVQLVESGGGLVQAGGSLRLSCAASGSIFEIYDMGWYRQAPGKERELVASITWSGGSTYYADSVKGRFTISRDNAKNTVYLQMNSLKPEDTAVYYCATDKLYGRTVRMDYWGQGTQVSVSS,low polyreactivity
10,QVQLVESGGGLVQAGGSLRLSCAASGSIFEPYAMGGYRQAPWTERELVAAIRVSGGSTYYADSVKGRFTISRDNAKNTVYLQMNSLKPEDTAVYYCGPDWWSRYYYWGQGTQVTVSS,high polyreactivity
11,QVQLVESGGGLVQAGGSLRLSCAASGSIFEPYAMGWYRQAPGKERELVAAISWDVGRTYYADSVKGRFTISRDNAKNTVYLQMNSLKPEDTAVYYCAAEIAIDGYYKSWYDYWGQGTQVTVSS,high polyreactivity
12,QVQLVESGGGLVQAGGSLRLSCAASGSIFEPYVMGWYRQAPGKERELVAAIRQTGGSTYYADSVKGRFTISRDNAKNTVFLQMNSLKPEDTAVYYCNAKWYGWQRGTVKYDYWGQGTQVTVSS,low polyreactivity
13,QVQLVESGGGLVQAGGSLRLSCAASGSIFEPYVMGWYRQAPGKERELVAVITSGSGRTYYADSVKGRFTISRDNAKNTVYLQMNSLKPEDTAVYYCNKAYLGYRYDLYDYWGQGTQVTVSS,low polyreactivity
14,QVQLVESGGGLVQAGGSLRLSCAASGSIFERNAMGWYRQAPGKERELVAAISWSSARTYYADSVKGRFTISRDNAKNTVYLQMNSLKPEDTAVYYCAARVWNEGVRYDYWGQGTQVTVSS,high polyreactivity
15,QVQLVESGGGLVQAGGSLRLSCAASGSIFESYAMGLYRQAPGKERELVAALTSSGDSTYYADSVKGRFTISRDNAKNTVYLQMYSLNPEDTAVDYCAKRVPTYISTADWVSRYDYWGQGTQVTVSS,low polyreactivity
16,QVQLVESGGGLVQAGGSLRLSCAASGSIFEVNAMGWYRQAPGKERELVAGISNADSTNYADSVKGRFTISRDNAKNTVYLQMNSLKPEDTAVYYCATDLYRDHPKDLLGPEYDYWGQGTQVTVSS,low polyreactivity
17,QVQLVESGGGLVQAGGSLRLSCAASGSIFEVYAMGWYRQAPGKERELVAAINYTGGSTYYADSVKGRFTISRDNAKNTVYLQMNSLKPEDTAVYYCAVPRGVASLQKVEFGYWGQGTQVTVSS,low polyreactivity
18,QVQLVESGGGLVQAGGSLRLSCAASGSIFEYNAMGWYRQAPGKERELVAAISGNGGRTYYADSVKGRFTISRDNAKNTVYLQMNSLKPEDTAVYYCNAQTYYSTYKSTFYYWGQGTQVTVSS,high polyreactivity
19,QVQLVESGGGLVQAGGSLRLSCAASGSIFEYNAMGWYRQAPGKERELVAAISWSSGTTYYADSVKGRFTISRDNAKNTVYLQMNSLKPEDTAVYYCAAVRWYVPGDVGYWGQGTQVTVSS,low polyreactivity
20,QVQLVESGGGLVQAGGSLRLSCAASGSIFEYNVMGWYRQAPGKERELVAAINSGGSTYYADSVKGRFTISRDNAKNTVYLQMNSLKPEDTAVYYCAARQRPNRYGYYYWGQGTQVTVSS,high polyreactivity
21,QVQLVESGGGLVQAGGSLRLSCAASGSIFEYYTMGWYIQAPGKERELVAGISWSGGSSYYADSVKGRFTISRDNAKNTVYLQMNSLKPEDTAVYYCAAGRTGWYWDSGSTYRYGYGYWGQGTQVTVSS,high polyreactivity
22,QVQLVESGGGLVQAGGSLRLSCAASGSIFFANAMGWYRQAPGKERELVAAITGSGDITYYADSVKGRFTISRDNAKNTVYLQMNSLKPEDTAVYYCAKRYIYVTHLRHPRYYYWGQGTQVTVSS,low polyreactivity

row,Sequence,polyreactivity (PSR sort gate)
1,QVQLVESGGGLVQAGGSLRLSCAASGSIFFDYAMGWYRQAPGKERELVAAINSGGTTNYADSVKGRFTISRDNAKNTVYLQMIQPETGRYRGLLLQRLPGYLRWYRWYDYWGQGTQVSVSS,low polyreactivity
2,QVQLVESGGGLVQAGGSLRLSCAASGSIFFDYAMGWYRQAPGKETELVAAMSSTGGSTYYADSVKGRFTISRDNSKNTVYLQMNSLIPEDTAVYYCNARYYSYSSPYDYWGEGTQVTVSS,high polyreactivity
3,QVQLVESGGGLVQAGGSLRLSCAASGSIFFFNAMGWYRQAPGKEREFVAAITSSSGRTYYADSVKGRFTISRDNAKNTVYLQMNSLKPEDTAVYYCAAEGLDEGDYWGQGTQVTVSS,low polyreactivity
4,QVQLVESGGGLVQAGGSLRLSCAASGSIFFKNVMGWYRQAPGKERELVAAITWSGGSTYYADSVKGRFTISRDNAKNTVYLQMNSLKPEDTAVYYCNARRSKGMYYWGQGTQVTVSS,high polyreactivity
5,QVQLVESGGGLVQAGGSLRLSCAASGSIFFKYAMGWYRQAPGKEREMVAAITWSGGRTYYADSVKGRFTISRDNAKNTVYLQMNSLKPEDTAVYYCNAYSIGVAAADDYWGQGTQVTVSS,high polyreactivity
6,QVQLVESGGGLVQAGGSLRLSCAASGSIFFPYAMGWYRKAPGKERGLVAAISWRGGITYYADSVKGRFTISRDNAKNTVYLQMNSLKPADTAVYYCAADGPYTGDGALDYWGQGTQVTVSS,high polyreactivity
7,QVQLVESGGGLVQAGGSLRLSCAASGSIFFRNAMGRYRPAPGKERELVAAISKSGGSTYYADSVKGRFTISRDNAKNTVYLQMNSLKPEDTAVYYCAAERTFLYWAYDYWGQGTQVTVSS,high polyreactivity
8,QVQLVESGGGLVQAGGSLRLSCAASGSIFFRNAMGWYRQAPGKERELVAAITWNGGSTYYADSVKGRFTISRDNAKNTVYLQMNSLKPEDTAVYYCNKYYYYRDSGYWGQGTQVTVSS,high polyreactivity
9,QVQLVESGGGLVQAGGSLRLSCAASGSIFFRYALAWYRQAPGKERELVASITSGGSTYYADSVKGRFTISRDNAKNTVYLQMNSLKPEDTAVYYCNALPYRYRRYDYWGQGTQVTVSS,low polyreactivity
10,QVQLVESGGGLVQAGGSLRLSCAASGSIFFRYAMGWYRQAPGKERELVATIRSSGGRTHYADSVKGRFTISRDNAKNTVYLQMHSLKPEDTAVYYCHYGVYQYPQDYDYWGQGTQVTVSS,low polyreactivity
11,QVQLVESGGGLVQAGGSLRLSCAASGSIFFRYAMGWYRQAPGKVRELVANISSGGGNTYYADSVKGRFTISRDNAKNTVYLQMNSLKPEDTAVYYCARRLATRGHTYDYWGQGTQVTVSS,low polyreactivity
12,QVQLVESGGGLVQAGGSLRLSCAASGSIFFSNAMGWYSPAPGKEREIVAGIRSGGITNYADSVKGRFTISRDNAKNTVYLEMNSLKPEDTAVYYCAKLNDHGRYAYAFDYWGQGTQVTVSS,low polyreactivity
13,QVQLVESGGGLVQAGGSLRLSCAASGSIFFSNVMGWYRQAPGKERELVAAIRWSGDSTYYADSVKRRFTISRDNAKNTVYLQMNSLKPEDTAVYYCARDVYGSVSVSGYYYWGQGTQVTVSA,low polyreactivity
14,QVQLVESGGGLVQAGGSLRLSCAASGSIFFSYAMGWYRQAPGKEREFVAAINSDDASTYADSVKGRFTISRDNAKNTVYLQMNSLKPEDTAVYYCAASFLWSWYDYWGQGTQVTVSS,low polyreactivity
15,QVQLVESGGGLVQAGGSLRLSCAASGSIFFSYAMGWYRQARGKERELVAAISTSGGNTYYADSVKGRFTISRDNAKNTVYLQMNSLKPEDTAVYYCNALYIYFYNYLTMDYWGQGTQVTVSS,low polyreactivity
16,QVQLVESGGGLVQAGGSLRLSCAASGSIFFTNAKGLSRQAPGKERELVAAITSSGTRTYYADSVKGRFTISRDNAKNTVYLQKNSLKPEDTAVYYCAVEVQYKYDYSHTYRYYYWGQGSQVTVSS,high polyreactivity
17,QVQLVESGGGLVQAGGSLRLSCAASGSIFFVNAMGWYRQAPGKERELVAAITWNAGRTYYADSVKGRFTISRDNAKNTVYLQMNSLKPEDTAVYYCNARAYYSSAIYDYWGQGTQVTVSS,low polyreactivity
18,QVQLVESGGGLVQAGGSLRLSCAASGSIFFWYAMGWYRQAPGKERELVAAISRGGRTTYADSVKGRFTISRDNAKNTVYLQMNSLKPEDTAVYYCAAYRYFTYFYYSDYPYNYWGQGTQVTVSS,high polyreactivity
19,QVQLVESGGGLVQAGGSLRLSCAASGSIFFYALGWYRQAPGKERELVADITYTGGSKYADSVKGRFTISRDNAKNTVYLQLNRLKPEDTAVYYCAKLDGGLFDYWGQGTQVTVSS,low polyreactivity
20,QVQLVESGGGLVQAGGSLRLSCAASGSIFFYYAMGRYRQAPGKEMELVATINIGAGSTNYADSVKGRFTISRDNAKNTVYLQMNSLKPEDTAVYYCAADVNFYQDYIYLTDYDYWGQGTQVTVSS,low polyreactivity
21,QVQLVESGGGLVQAGGSLRLSCAASGSIFFYYAMGRYRQARGKERQLVAAISYSDGTTYYADSVKGRFTISRDNAKNTVYLQMNSLKPEDTAVYYCAADLWVGLVTLWDGYVQYDYWGQGTQVTVSS,low polyreactivity

# Reference: the nanobody polyreactivity screen of Harvey et al. (2022)
